This note sets out measurements from US20190031760A1 (Hoffmann-La Roche, published 2019).

Usually Kd stands for the constant that tells how readily two partners part at equilibrium. A low value points to a tighter complex. Usually koff stands for the rate constant with which the complex falls apart. A lower koff goes with a long-lived complex. What is called kon is the rate constant with which the complex forms. Low readings indicate slow association, high ones fast association.

The target in experiment [1] is T1, avi-Fc-human ASGPR H1 CRD (human, UniProt P0DOX5 223-449 = IgG part, biotinylated at the N-terminal Avi tag).
T1 construct: also called Fc-CRD; hu/cyASGPR H1 CRD
In words: SPR (ProteOn XPR36), antigen captured by neutravidin, Fab as analyte.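 Also: rate constants obtained by global fit of association and dissociation sensorgrams to a 1:1 Langmuir model, buffer channel as in-line reference, KD computed as koff divided by kon.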

The target in experiment [2] is T2, human ASGPR H1 on ASGPR-positive hepatic cells (HepG2, primary human hepatocytes, Huh-7) (human, UniProt P07306 1-291).
T2 construct: whole, on cells; Endogenous receptor on cells; the antibodies were selected on H1; also called surface-exposed ASGPR
T2 sequence (looked up): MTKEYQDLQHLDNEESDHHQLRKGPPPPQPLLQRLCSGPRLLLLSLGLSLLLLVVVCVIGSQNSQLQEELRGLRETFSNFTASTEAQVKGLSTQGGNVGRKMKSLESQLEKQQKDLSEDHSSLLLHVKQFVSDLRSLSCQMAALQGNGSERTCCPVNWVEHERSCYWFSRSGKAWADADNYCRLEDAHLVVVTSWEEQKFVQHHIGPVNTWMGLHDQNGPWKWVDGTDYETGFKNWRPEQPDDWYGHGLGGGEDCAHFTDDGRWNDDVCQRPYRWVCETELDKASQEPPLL
Kind of experiment: FACS on HepG2 cells, purified Fab at 1.1, 3.3 and 10 µg/ml, 30 min at 4°C, FITC anti-human F(ab')2 secondary.

B1: 51A12_E7 Fab (Fab, V domains shown)
VH: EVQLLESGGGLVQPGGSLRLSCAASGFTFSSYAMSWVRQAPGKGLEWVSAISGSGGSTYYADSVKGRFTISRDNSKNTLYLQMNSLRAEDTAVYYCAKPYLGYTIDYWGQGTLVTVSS
VL: SSELTQDPAVSVALGQTVRITCQGDSLRSYYASWYQQKPGQAPVLVIYGKNNRPSGIPDRFSGSSSGNTASLTITGAQAEDEADYYCNSRDYRYNRAVRPFGGGTKLTVL
notes: Fab
Turning to B1, in experiment [1], the Kd was found to be 0.448 nM, the koff was determined as 9.64e-05 s⁻¹ and the kon worked out at 215000 M⁻¹ s⁻¹. The binding result in experiment [2] is reported as “binds”.

B2: 51A12_A6 Fab (Fab, V domains shown)
VH: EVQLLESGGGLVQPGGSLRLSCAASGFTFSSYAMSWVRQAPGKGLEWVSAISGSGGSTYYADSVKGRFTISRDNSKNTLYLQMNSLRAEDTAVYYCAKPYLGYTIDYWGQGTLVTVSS
VL: SSELTQDPAVSVALGQTVRITCQGDSLRSYYASWYQQKPGQAPVLVIYGKNNRPSGIPDRFSGSSSGNTASLTITGAQAEDEADYYCNSRTYSYNRAVRNFGGGTKLTVL
notes: Fab; also called Variant 51A12_A6
In experiment [1], B2 had an equilibrium dissociation constant (Kd) of 0.0801 nM, a koff of 2.61e-05 s⁻¹ and a kon of 326000 M⁻¹ s⁻¹. The binding result in experiment [2] is “binds”.

B3: 51A12_C7 Fab (Fab, V domains shown)
VH: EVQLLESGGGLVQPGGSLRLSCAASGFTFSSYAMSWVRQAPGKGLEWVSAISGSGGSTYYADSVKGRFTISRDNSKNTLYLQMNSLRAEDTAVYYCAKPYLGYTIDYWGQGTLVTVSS
VL: SSELTQDPAVSVALGQTVRITCQGDSLRSYYASWYQQKPGQAPVLVIYGKNNRPSGIPDRFSGSSSGNTASLTITGAQAEDEADYYCNSRDIRYNRVVRPFGGGTKLTVL
notes: Fab
On to B3, for which, in experiment [1], the Kd amounted to 0.235 nM, the koff stood at 4.67e-05 s⁻¹ and the kon worked out at 199000 M⁻¹ s⁻¹. The binding result in experiment [2] is recorded as “binds”.

B4: 51A12_H6 Fab (Fab, V domains shown)
VH: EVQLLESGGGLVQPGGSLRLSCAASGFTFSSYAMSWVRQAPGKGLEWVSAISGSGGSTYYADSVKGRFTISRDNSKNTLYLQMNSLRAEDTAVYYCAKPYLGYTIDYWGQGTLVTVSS
VL: SSELTQDPAVSVALGQTVRITCQGDSLRSYYASWYQQKPGQAPVLVIYGKNNRPSGIPDRFSGSSSGNTASLTITGAQAEDEADYYCNSRDYKWNRVVRHFGGGTKLTVL
notes: Fab
As for B4, in experiment [1], the affinity, expressed as Kd, was 0.325 nM; the koff was 2.79e-05 s⁻¹; the kon came out at 86000 M⁻¹ s⁻¹. The binding result in experiment [2] is “binds”.

B5: 51A12 S116A Fab (Fab, V domains shown)
VH: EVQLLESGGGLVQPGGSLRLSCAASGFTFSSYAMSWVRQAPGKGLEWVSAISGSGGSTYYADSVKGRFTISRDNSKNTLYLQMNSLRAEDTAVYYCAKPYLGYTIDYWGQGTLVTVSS
VL: SSELTQDPAVSVALGQTVRITCQGDSLRSYYASWYQQKPGQAPVLVIYGKNNRPSGIPDRFSASSSGNTASLTITGAQAEDEADYYCNSRDICCNRAVRNFGGGTKLTVL
notes: Fab
Turning to B5, in experiment [1], binding was put at a Kd of 1.43 nM, the koff came to 0.000178 s⁻¹ and the kon worked out at 131000 M⁻¹ s⁻¹. For the same molecule, the binding result in experiment [2] is recorded as “binds”.

B6: 51A12_C1 Fab (Fab, V domains shown)
VH: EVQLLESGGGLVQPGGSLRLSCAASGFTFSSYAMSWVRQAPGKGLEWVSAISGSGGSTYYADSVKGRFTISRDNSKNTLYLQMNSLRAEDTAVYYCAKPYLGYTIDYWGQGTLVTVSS
VL: SSELTQDPAVSVALGQTVRITCQGDSLRSYYASWYQQKPGQAPVLVIYGKNNRPSGIPDRFSGSSSGNTASLTITGAQAEDEADYYCNSRSYAFNRVVRNFGGGTKLTVL
notes: Fab
In the case of B6, in experiment [1], binding was put at a Kd of 0.241 nM, the koff amounted to 4.19e-05 s⁻¹ and the kon amounted to 174000 M⁻¹ s⁻¹. For the same molecule, the binding result in experiment [2] was “binds”.

B7: 51A12_D1 Fab (Fab, V domains shown)
VH: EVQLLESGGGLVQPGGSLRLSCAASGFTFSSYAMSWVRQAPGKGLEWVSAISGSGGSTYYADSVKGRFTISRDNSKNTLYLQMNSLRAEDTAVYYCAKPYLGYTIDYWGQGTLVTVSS
VL: SSELTQDPAVSVALGQTVRITCQGDSLRSYYASWYQQKPGQAPVLVIYGKNNRPSGIPDRFSGSSSGNTASLTITGAQAEDEADYYCNSRTYSYNRAVRPFGGGTKLTVL
notes: Fab
On to B7, for which, in experiment [1], the Kd was 0.221 nM, the koff amounted to 8.85e-05 s⁻¹ and the kon was 400000 M⁻¹ s⁻¹. In experiment [2], the binding result is “binds”.

B8: 51A12_H3 Fab (Fab, V domains shown)
VH: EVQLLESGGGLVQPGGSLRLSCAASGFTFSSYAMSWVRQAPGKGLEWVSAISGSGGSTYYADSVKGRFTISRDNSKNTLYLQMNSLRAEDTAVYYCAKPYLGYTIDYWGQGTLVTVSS
VL: SSELTQDPAVSVALGQTVRITCQGDSLRSYYASWYQQKPGQAPVLVIYGKNNRPSGIPDRFSGSSSGNTASLTITGAQAEDEADYYCNSRDYKFNRVVRNFGGGTKLTVL
notes: Fab
In experiment [1], B8 had a Kd of 0.51 nM, a koff of 8.3e-05 s⁻¹ and a kon of 163000 M⁻¹ s⁻¹. Moreover, the binding result in experiment [2] is “binds”.

B9: 51A12 A82G S116A Fab (Fab, V domains shown)
VH: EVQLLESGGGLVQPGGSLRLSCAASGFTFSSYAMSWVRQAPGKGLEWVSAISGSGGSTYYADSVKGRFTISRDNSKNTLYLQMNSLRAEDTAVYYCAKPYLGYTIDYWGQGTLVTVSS
VL: SSELTQDPAVSVALGQTVRITCQGDSLRSYYASWYQQKPGQAPVLVIYGKNNRPSGIPDRFSGSSSGNTASLTITGAQAEDEADYYCNSRDICCNRAVRNFGGGTKLTVLG
notes: Light chain variant of 51A12 with the parental heavy chain; To be rechecked
In experiment [1], B9 returned a Kd of 1.25 nM, a koff of 0.00016 s⁻¹ and a kon of 127000 M⁻¹ s⁻¹.
